Laboratory results reported in publication PMC2364237.

Biological target: GST-Grb2(SH2) SH2 domain (UniProt P62993)
Assay: GST-Grb2(SH2) pull-down, anti-HA blot
Conditions: reference: HA-ShcWT; sites Y317

“HA-tagged Shc (52 kDa isoform) (from UniProt P29353-2) HA-ShcY317F” was tested, and the “binding against the reference” value was “weaker”.
